Experimental data reported in paper PMC10724200, “A peptide derived from interleukin-10 exhibits potential anticancer activity and can facilitate cell targeting of gold nanoparticles loaded with anticancer therapeutics” (Communications Chemistry, 2023).
“Also recorded” adds a separate entry of the source. Ends that are not written are not given here.

Legend:
[1] = target: T1, recombinant receptor human IL-10Ra protein (Homo sapiens, UniProt Q13651); assay: Biolayer interferometry kinetic assay, binding to IL-10Ra; settings: for kon: read-out: ka (association constant)
T1 sequence (Q13651 22-578): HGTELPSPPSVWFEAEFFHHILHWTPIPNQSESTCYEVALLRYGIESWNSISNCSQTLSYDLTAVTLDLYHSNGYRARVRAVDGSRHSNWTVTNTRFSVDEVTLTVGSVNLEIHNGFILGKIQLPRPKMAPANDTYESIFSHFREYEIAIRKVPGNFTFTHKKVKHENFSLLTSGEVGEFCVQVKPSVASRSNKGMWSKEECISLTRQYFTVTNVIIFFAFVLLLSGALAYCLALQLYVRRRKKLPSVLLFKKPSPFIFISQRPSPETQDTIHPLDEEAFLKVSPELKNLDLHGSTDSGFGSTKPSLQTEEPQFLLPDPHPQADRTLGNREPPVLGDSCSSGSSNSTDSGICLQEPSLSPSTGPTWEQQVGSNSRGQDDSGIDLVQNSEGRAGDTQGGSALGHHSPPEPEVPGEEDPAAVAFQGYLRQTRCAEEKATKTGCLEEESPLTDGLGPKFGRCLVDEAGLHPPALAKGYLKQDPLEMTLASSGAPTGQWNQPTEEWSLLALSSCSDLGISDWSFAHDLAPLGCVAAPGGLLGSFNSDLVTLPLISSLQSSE
Description: Biolayer interferometry (BLI) was applied to analyze peptide–receptor protein interactions. BLI was performed with a ForteBio Octet RED96e System (Sartorius AG, Göttingen, Germany) by using high-precision streptavidin and biosensors. The biosensors were hydrated in a plate for 15 min and then loaded with 10 μg/mL recombinant receptor human IL-10Ra protein and incubated for 150 s. […] After the association step, the biosensor was shifted to the dissociation buffer, phosphate-buffered saline (PBS) with 0.05% Tween20, for dissociation. Dissociation was recorded until equilibrium was reached (120 s).
To measure the binding ability of the designed and negative control peptides (NM25, NK20, NK20a, and control scramble peptide CG20) to the receptor IL-10Ra in vitro, BLI experiments were performed. […] When binding with IL-10Ra, the association constant (ka) of NK20 and NK20a was 1.02 × 10^4 (1/Ms) and 8.14 × 10^3 (1/Ms), respectively. The ka values of the refined peptides were approximately 12-fold higher than that of NM25. […] The equilibrium dissociation constant (KD) of NK20a interactions with IL-1R1was approximately 2000 times greater than that with IL-10Ra, and the calculated dissociation constant of NK20a interactions with IL-1R1 was to be 5000 times greater than that with IL-10Ra interactions (Table 2). […] As a result, NK20a was used for further investigations in this study.
Fig. 3 BLI kinetic assays of the designed peptides binding to the receptor IL-10Ra. Wavelength shift curves show the association and dissociation of the designed peptides (a) NM25, (b) NK20, (c) NK20a, (d) CG20 binding to the IL-10 receptor, and (e) NK20a binding to a control receptor IL-1R1 at various concentrations. Dissociation was recorded at 120 s after the binding started (black dotted line).

[2] = parameters: method as in 2 sources, ref 40 = [40]; PMID 22211087; doi:10.7150/ijms.9.33; 40. Kadoyama K Adverse event profiles of 5-fluorouracil and capecitabine: data mining of the public version of the FDA adverse event reporting system, AERS, and reproducibility of clinical observation ||| ref 49 = [49]; 49. Casale, J. & Patel, P. Fluorouracil [Updated 2022 Nov 24]. In StatPearls. (StatPearls Publishing, Treasure Island (FL), 2023).; settings: cited from earlier work
Text: 5-FU is a cytotoxic chemotherapeutic drug used in the treatment of a variety of cancers, including breast cancer. […] The gold nanoparticles fabricated in this study may be used as a delivery material to deliver 5-FU into cancer cells. Here, we loaded 5-FU onto NK20a/Poly A15@Au and Poly A15@Au nanoparticles. […] It works by inhibiting the normal synthesis of thymidine by incorporating 5-FU metabolites into DNA and RNA, eventually leading to the arrest of synthetic pathways and subsequent apoptosis of treated cells[47],[48]. 5-FU is typically administered via intravenous injection. Infusions of 5-FU can be rapidly […] through the circulatory system, and prolonged administration of 5-FU is required to maintain a high level of 5-FU in the body, thereby enhancing clinical efficacy. However, its nonspecific toxicity, ...

[3] = system: BT-474 breast cancer cells; assay: Therapeutic efficacy: cell viability (CCK-8), BT-474 breast cancer cells; assay type: cell-based, human
Text: 5-FU is a cytotoxic chemotherapeutic drug used in the treatment of a variety of cancers, including breast cancer. […] The gold nanoparticles fabricated in this study may be used as a delivery material to deliver 5-FU into cancer cells. Here, we loaded 5-FU onto NK20a/Poly A15@Au and Poly A15@Au nanoparticles.

[4] = system: RAW 264.7 macrophages; assay: Atomic force microscopy of macrophage morphology / activation; assay type: cell-based; settings: RAW 264.7, AFM; LPS 10 ng/mL, IL-10 10 ng/mL, NK20a 50 μg/mL pretreatment 30 min with LPS; fixed after 24 h
Description: Cell morphology was evaluated through atomic force microscopy (AFM) to observe the effects of the peptide on the cells. For AFM experiments, RAW 264.7 macrophages (5 × 10^4 cells/mL) were seeded on coverslips that had been treated with HCl to facilitate cell attachment. The cells were treated with lipopolysaccharides (LPS), NK20a, or IL-10 and incubated at 37 °C. After 24 h of incubation, the medium was removed, and the cells were washed twice with PBS. The cells were then fixed with 4% glutaraldehyde for 40 min. Finally, the fixation solution was removed, the samples were gently washed three times with Milli Q water, and then the samples were dried in a desiccator for 3 h. Cell morphology was imaged using an AFM instrument (Nanowizard, JPK BioAFM, Bruker Nano GmbH, Berlin, Germany). […] The AFM probes used were oxide-sharpened silicon nitride (Si3N4) probes (OMCL-TR400PB-1, Olympus, Tokyo, Japan) with a spring constant of 0.02 N/m. The SPM image processing software package version 3.1.6 (JPK BioAFM, Bruker Nano GmbH, Berlin, Germany) was used for processing and analysis of AFM image data.
Macrophages play a key role in tumor cell clearance. […] In this study, we examined the ability of NK20a to inhibit the anti-inflammatory effects of IL-10 on macrophages. The RAW 264.7 macrophage cell line was used in the evaluation, and the activation of macrophage cells was visualized through AFM. […]

[5] = system: BJAB B-lymphoma cells; assay: Cell viability assay (CCK-8), B-lymphoma cells; assay type: cell-based; settings: 50 μg/mL NK20a and/or 10 ng/mL IL-10, 48 h, triplicate
Description: BJAB B-lymphoma cell lines were cultured in RPMI 1640 medium supplemented with 10% fetal bovine serum. RAW 264.7 macrophage and BT-474 human breast tumor cell lines were cultured in Dulbecco’s Modified Eagle Medium (DMEM) supplemented with 10% fetal bovine serum, 1% L-glutamine, 100 U/ml penicillin, 100 U/ml streptomycin, and sodium pyruvate. The cells were incubated at 37 °C in a 5% CO2 atmosphere.
For the cell viability assay, B-lymphoma cells were cultured in 96-well plates at a density of 3 × 10^3 cells/well for 24 h. The cells were then treated with 10 ng/mL IL-10 and 50 μg/mL NK20a, and further incubated for 48 h. After incubation, 10 μL of Cell Counting Kit-8 (CCK-8; Enzo Life Sciences, NY, USA) reagent was added, and the cells were incubated at 37 °C for 1 h. Cell viability was quantified by measuring the absorbance at 450 nm by using an ELISA plate reader (CLARIOstar Plus, BMG Labtech, Ortenberg, Germany).
Fig. 4 In vitro binding assay and cytotoxicity study. a B-lymphoma cells were treated with NK20a, and the fluorescence of the treated cells was analyzed through flow cytometry to determine the binding ability of NK20a to the cell surface. The fluorescence distribution of FITC was categorized as treated with NK20a (green) and untreated (red). b Bar chart showing the cell viability of the B-lymphoma cell line treated with 10 ng/mL IL-10, 50 μg/mL NK20a, and both, respectively. […]

[6] = target: T2, recombinant receptor human IL-10Ra protein (human, UniProt Q13651 22-235); assay: BLI; ForteBio Octet RED96e, streptavidin biosensors loaded with 10 μg/mL recombinant human IL-10Ra (150 s); peptides at 3.12-100.0 μM, association 120 s; dissociation 120 s in PBS with 0.05% Tween20; settings: both partners purified
T2 construct: Interleukin-10 receptor subunit alpha, human, recombinant; also called IL-10 receptor
T2 sequence (looked up): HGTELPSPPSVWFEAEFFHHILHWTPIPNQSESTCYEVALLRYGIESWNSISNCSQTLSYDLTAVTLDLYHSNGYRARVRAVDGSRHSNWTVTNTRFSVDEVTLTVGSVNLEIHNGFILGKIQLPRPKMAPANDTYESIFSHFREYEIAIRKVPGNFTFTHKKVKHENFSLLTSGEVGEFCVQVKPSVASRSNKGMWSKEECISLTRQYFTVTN

[7] = target: T3, recombinant receptor human IL-10Ra protein (human, UniProt Q13651 22-235); assay: BLI; steady-state analysis
T3 chain: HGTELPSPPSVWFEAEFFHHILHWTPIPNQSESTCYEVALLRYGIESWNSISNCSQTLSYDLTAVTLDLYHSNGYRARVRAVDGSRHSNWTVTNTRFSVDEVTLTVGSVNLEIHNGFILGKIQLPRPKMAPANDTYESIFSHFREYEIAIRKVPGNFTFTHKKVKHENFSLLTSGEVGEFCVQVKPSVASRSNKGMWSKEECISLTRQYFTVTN

[8] = target: receptor IL-1R1 (UniProt P14778 18-569, Source and limits not given; taken as the recombinant extracellular domain (UniProt topological domain 18-336) by convention. Human inferred from the human IL-10Ra used in the same BLI assay. Likely); assay: BLI; control receptor IL-1R1 in place of IL-10Ra; NK20a at various concentrations; settings: both partners purified
Chain of receptor IL-1R1 (P14778 18-569): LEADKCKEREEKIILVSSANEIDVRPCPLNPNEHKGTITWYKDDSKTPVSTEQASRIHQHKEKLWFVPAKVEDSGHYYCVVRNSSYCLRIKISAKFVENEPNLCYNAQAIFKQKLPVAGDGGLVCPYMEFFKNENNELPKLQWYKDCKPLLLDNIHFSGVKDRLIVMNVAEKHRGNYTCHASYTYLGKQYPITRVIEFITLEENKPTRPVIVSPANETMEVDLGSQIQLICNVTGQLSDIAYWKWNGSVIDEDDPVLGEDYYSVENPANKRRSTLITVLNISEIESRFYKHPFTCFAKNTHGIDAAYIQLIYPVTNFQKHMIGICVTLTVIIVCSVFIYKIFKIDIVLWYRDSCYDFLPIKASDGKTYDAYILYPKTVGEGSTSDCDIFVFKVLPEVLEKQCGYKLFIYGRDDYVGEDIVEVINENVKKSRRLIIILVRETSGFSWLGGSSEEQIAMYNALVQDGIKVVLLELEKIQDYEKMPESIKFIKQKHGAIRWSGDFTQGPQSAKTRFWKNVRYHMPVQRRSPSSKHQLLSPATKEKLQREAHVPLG

[9] = BLI kinetic, human IL-10Ra, peptides 3.12-100.0 μM, association 120 s

NMLRDLRDAFSRVKTFFQMK [NK20]
kon [1, 9]: 10200 M⁻¹ s⁻¹

NMLRDLRDAFSRVKTFFQMKDQLDN [NM25]
kon [1, 9]: 832 M⁻¹ s⁻¹

CPLNGSTVYGHLRHCLSCSG [CG20, random, control scramble peptide, reference compound]
binding to IL-10Ra (in words) ([1]; BLI): not able to bind to IL-10Ra

O=c1[nH]cc(F)c(=O)[nH]1 [5-FU, 5-fluorouracil]
membrane permeability (in words) [2]: poor membrane permeability | membrane permeability / half-life in plasma (in words) [2]: poor membrane permeability, and short half-life in plasma | survival rate ([3]; BT-474, free 5-FU at 80 μM, 72 h, CCK-8): more than 70% | cell survival / therapeutic effect on BT-474 (in words) ([3]; CCK-8, 72 h, 5-FU free up to 80 μM): did not exhibit a significant therapeutic effect against the breast cancer cells

IL-10: immune regulatory cytokine with strong anti-inflammatory activity
kd (dissociation constant) ([1]; BLI kinetic, human IL-10Ra, dissociation 120 s in PBS with 0.05% Tween20): <1e-07 s⁻¹ | ka (association constant) [1, 9]: 224000 M⁻¹ s⁻¹ | macrophage activation, morphology (in words) [4]: the activation of macrophages was suppressed; also recorded: inhibited the inflammation of LPS-stimulated cells | cell proliferation / viability (in words) [5]: did not significantly promote the proliferation of lymphoma B cells

B1: NK20 peptide (peptide)
peptide: NMLRDLRDAFSRVKTFFQMK
notes: truncation of NM25 (five C-terminal residues removed); stretch of human IL-10; source: synthetic peptide (GeneMark, GMbiolab Co., solid-phase)
Kd [6]: 21.4 µM | koff [6]: 0.218 s⁻¹ | Kd [7]: 0.26 µM

B2: NK20a peptide (peptide)
peptide: NMLRNLRNAFSRVKTFFQMK
notes: NK20 with two Asp replaced by Asn; stretch of human IL-10; source: synthetic peptide (GeneMark, GMbiolab Co., solid-phase)
Kd [8]: 28000 µM | koff [8]: 512 s⁻¹ | Kd [6]: 11.2 µM | koff [6]: 0.0909 s⁻¹ | Kd [7]: 0.15 µM

B3: Human interleukin-10 (IL-10) (ligand, UniProt P22301 19-178, looked up)
chain: SPGQGTQSENSCTHFPGNLPNMLRDLRDAFSRVKTFFQMKDQLDNLLLKESLLEDFKGYLGCQALSEMIQFYLEEVMPQAENQDPDIKAHVNSLGENLKTLRLRLRRCHRFLPCENKSKAVEQVKNAFNKLQEKGIYKAMSEFDIFINYIEAYMTMKIRN
notes: Interleukin-10, human; the methods of the BLI describe only the peptides as analytes; also called IL-10 cytokine
Kd [6]: < 1e-06 µM | koff [6]: < 1e-07 s⁻¹ | kon [6]: 224000 M⁻¹ s⁻¹ | Kd [7]: 1 µM

B4: NM25 peptide (peptide)
peptide: NMLRDLRDAFSRVKTFFQMKDQLDN
notes: human IL-10; also called original peptide; source: synthetic peptide (GeneMark, GMbiolab Co., solid-phase)
Kd [6]: 41 µM | koff [6]: 0.0341 s⁻¹ | Kd [7]: 0.55 µM
